Reference: patent US20230365714A1 (published 2023)

Key:
[1] = target: T1, cynomolgus monkey ROR2 in which threonine at position 322 is replaced by methionine (ROR2mf-T322M) (cynomolgus monkey (Macaca fascicularis), UniProt Q01974 34-943 (human entry)); assay: flow cytometry on CHO cells expressing ROR2mf-T322M
T1 construct: also called RORmf-T322M

[2] = target: T2, cynomolgus monkey (Macaca fascicularis) ROR2, full length, on CHO cells (cynomolgus monkey (Macaca fascicularis), UniProt Q01974 34-943 (human entry)); assay: flow cytometry on CHO cells expressing cynomolgus monkey ROR2
T2 construct: also called ROR2mf; CHO-mfROR2
T2 chain: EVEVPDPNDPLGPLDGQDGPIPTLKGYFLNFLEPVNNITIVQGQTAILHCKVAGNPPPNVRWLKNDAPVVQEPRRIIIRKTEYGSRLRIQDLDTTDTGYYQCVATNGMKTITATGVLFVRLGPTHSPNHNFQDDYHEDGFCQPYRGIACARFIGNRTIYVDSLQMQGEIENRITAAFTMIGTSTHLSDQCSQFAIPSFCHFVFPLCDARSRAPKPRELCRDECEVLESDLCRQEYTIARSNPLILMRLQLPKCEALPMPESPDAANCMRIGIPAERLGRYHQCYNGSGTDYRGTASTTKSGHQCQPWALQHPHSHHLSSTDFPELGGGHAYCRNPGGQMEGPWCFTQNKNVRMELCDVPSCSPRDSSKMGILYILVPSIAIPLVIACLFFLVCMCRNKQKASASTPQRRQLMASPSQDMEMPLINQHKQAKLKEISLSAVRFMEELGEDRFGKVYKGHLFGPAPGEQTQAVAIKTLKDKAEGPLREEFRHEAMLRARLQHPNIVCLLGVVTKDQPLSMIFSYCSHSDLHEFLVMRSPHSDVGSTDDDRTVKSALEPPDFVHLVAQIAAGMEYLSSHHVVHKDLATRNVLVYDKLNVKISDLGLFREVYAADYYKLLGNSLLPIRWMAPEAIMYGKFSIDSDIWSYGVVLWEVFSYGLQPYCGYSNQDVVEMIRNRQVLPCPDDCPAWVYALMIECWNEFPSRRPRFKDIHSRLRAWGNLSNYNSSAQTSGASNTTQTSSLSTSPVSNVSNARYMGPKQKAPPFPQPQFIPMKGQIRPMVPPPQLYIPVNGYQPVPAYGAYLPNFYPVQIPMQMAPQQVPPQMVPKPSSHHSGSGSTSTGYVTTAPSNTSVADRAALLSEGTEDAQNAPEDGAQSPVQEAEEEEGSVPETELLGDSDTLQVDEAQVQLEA
Procedure: Next, binding of bispecific CD3×ROR2 antibodies and monospecific ROR2 antibodies to CHO cells expressing human or cynomolgus monkey ROR2 was determined, using 5×10⁴ transfected cells/well and an antibody concentration range from 0.01-10 μg/mL.

[3] = target: T3, his-tagged ROR2 extracellular domain (ROR2-ECD, G&P Biosciences, cat. no. FCL0192) (human, UniProt Q01974 34-403); assay: BLI (Octet), antibody on anti-human IgG Fc sensor, ROR2-ECD 1.56-100 nM as analyte
T3 construct: Bought protein; also called human ROR2-ECD; recombinant human ROR2-ECD; not shown: his tag

[4] = target: T4, human (Homo sapiens) ROR2, full length, on cells (human, UniProt Q01974 34-943); assay: cell-based or functional assay
[5] = target: T4, human (Homo sapiens) ROR2, full length, …; assay: flow cytometry on CHO cells expressing human ROR2
Procedure: Cells (1×10⁵ cells/well) were incubated in polystyrene 96-well round-bottom plates (Greiner bio-one, cat. no. 650180) with serial dilutions of antibodies (ranging from 0.01 to 10 μg/mL in 3- or 4-fold dilution steps) in 100 μL PBS/0.1% BSA/0.02% azide (FACS buffer) at 4° C. for 30-60 min. Experiments were performed in technical duplicate. After washing twice in FACS buffer, cells were incubated in 50 μL secondary antibody (R-Phycoerythrin [PE]-conjugated goat-anti-human IgG F(ab′)₂; diluted 1:200 in FACS buffer; Jackson ImmunoResearch Laboratories, Inc., West Grove, PA, cat. no. 109-116-098) at 4° C. for 30 min. Cells were washed twice in FACS buffer, re-suspended in 30 μL FACS buffer containing Topro-3 (1:10,000 dilution) and analyzed on an iQue Screener (Intellicyt Corporation, USA). Binding curves were analyzed using non-linear regression (sigmoidal dose-response with variable slope) using GraphPad Prism V7.02 software (GraphPad Software, San Diego, CA, USA).

T3 sequence (Q01974 34-403): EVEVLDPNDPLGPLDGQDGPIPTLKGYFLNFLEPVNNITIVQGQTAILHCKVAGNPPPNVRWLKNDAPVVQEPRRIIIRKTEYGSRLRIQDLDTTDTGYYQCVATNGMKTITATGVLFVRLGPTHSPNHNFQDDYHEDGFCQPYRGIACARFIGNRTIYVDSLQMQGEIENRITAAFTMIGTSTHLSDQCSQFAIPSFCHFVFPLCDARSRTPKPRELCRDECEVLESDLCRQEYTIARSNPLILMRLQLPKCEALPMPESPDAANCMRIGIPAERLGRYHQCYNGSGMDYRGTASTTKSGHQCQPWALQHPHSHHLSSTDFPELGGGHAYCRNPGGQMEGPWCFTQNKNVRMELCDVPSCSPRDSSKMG
T4 sequence (Q01974 34-943 limits assumed): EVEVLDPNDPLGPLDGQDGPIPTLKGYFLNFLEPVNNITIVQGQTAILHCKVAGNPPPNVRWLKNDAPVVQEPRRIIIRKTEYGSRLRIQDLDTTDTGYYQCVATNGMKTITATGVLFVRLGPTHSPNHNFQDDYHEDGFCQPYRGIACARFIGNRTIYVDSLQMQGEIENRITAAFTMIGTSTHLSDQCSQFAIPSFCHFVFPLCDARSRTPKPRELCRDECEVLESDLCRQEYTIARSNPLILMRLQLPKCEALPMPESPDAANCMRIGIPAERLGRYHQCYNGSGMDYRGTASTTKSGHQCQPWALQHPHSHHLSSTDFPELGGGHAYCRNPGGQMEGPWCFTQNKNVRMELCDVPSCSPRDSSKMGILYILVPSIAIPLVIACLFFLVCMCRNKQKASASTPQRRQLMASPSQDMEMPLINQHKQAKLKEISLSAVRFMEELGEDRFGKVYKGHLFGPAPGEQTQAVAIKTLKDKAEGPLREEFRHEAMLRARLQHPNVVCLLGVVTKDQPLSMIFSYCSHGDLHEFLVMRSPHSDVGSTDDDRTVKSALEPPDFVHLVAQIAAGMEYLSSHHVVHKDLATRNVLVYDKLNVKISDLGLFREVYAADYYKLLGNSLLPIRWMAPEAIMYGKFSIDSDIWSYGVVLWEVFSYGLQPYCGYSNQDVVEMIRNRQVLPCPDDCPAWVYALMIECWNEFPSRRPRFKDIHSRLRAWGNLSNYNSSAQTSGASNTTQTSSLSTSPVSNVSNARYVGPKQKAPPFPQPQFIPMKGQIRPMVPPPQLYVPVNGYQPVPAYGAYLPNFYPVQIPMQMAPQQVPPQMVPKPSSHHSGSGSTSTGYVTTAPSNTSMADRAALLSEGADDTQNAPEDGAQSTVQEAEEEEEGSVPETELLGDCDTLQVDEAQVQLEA

B1: chIgG1-ROR2-A-FEAR (antibody, V domains shown)
VH: QSVEESGGRLVTPGTPLTLTCTVSGFSLSSYSMSWVRQAPGKGLEWIGVIYVNSKTWYANWAKGRFTISKTSTTVDLKITSPTTEDTATYFCARGDAGYTTNSWLWGPGTLVTVSS
VL: AFELTQTPASVSEPVGGTVTIKCQASESIDNYCSWYQQKPGQPPKLLIYQAFKLASGVPSRFRGSGSGTQFTLTISDLESDDAATYYCQSYSGISTTAFGGGTEVVVKR
notes: Full-length IgG1 with L234F, L235E, D265A, K409R; also called chIgG1-ROR2-A (with the Fc mutations FEAR)
[1]
  binding result: binds
[2]
  binding result: binds
[3]
  Kd: 1.1 nM
  koff: 0.00079 s⁻¹
  kon: 720000 M⁻¹ s⁻¹

B2: bsIgG1-huCD3-FEAL×chROR2-A-FEAR (bispecific antibody)
heavy 1: not shown
light 1: not shown
heavy 2: QSVEESGGRLVTPGTPLTLTCTVSGFSLSSYSMSWVRQAPGKGLEWIGVIYVNSKTWYANWAKGRFTISKTSTTVDLKITSPTTEDTATYFCARGDAGYTTNSWLWGPGTLVTVSSASTKGPSVFPLAPSSKSTSGGTAALGCLVKDYFPEPVTVSWNSGALTSGVHTFPAVLQSSGLYSLSSVVTVPSSSLGTQTYICNVNHKPSNTKVDKRVEPKSCDKTHTCPPCPAPEFEGGPSVFLFPPKPKDTLMISRTPEVTCVVVAVSHEDPEVKFNWYVDGVEVHNAKTKPREEQYNSTYRVVSVLTVLHQDWLNGKEYKCKVSNKALPAPIEKTISKAKGQPREPQVYTLPPSREEMTKNQVSLTCLVKGFYPSDIAVEWESNGQPENNYKTTPPVLDSDGSFFLYSRLTVDKSRWQQGNVFSCSVMHEALHNHYTQKSLSLSPGK
light 2: AFELTQTPASVSEPVGGTVTIKCQASESIDNYCSWYQQKPGQPPKLLIYQAFKLASGVPSRFRGSGSGTQFTLTISDLESDDAATYYCQSYSGISTTAFGGGTEVVVKRTVAAPSVFIFPPSDEQLKSGTASVVCLLNNFYPREAKVQWKVDNALQSGNSQESVTEQDSKDSTYSLSSTLTLSKADYEKHKVYACEVTHQGLSSPVTKSFNRGEC
[4]
  IC50 of T cell mediated cytotoxicity, 786-O cells, human T cells, E:T 8:1: 0.003 mg/L
  IC50 of T cell mediated cytotoxicity, Hela cells, human T cells, E:T 8:1: 0.002 mg/L
  IC50 of T cell mediated cytotoxicity, LCLC-103H cells, human T cells, E:T 8:1: 0.011 mg/L
  IC50 of T cell mediated cytotoxicity, NCI-H23 cells, human T cells, E:T 8:1: 0.013 mg/L
  IC50 of T cell mediated cytotoxicity, NCI-H1650 cells, human T cells, E:T 8:1: 0.006 mg/L
  IC50 of T cell mediated cytotoxicity, ZR-75-1 cells, human T cells, E:T 8:1: 0.003 mg/L
[1]
  binding result: binds
[2]
  binding result: binds

B3: bsIgG1-huCD3-H101G-FEAL×chROR2-A-FEAR (bispecific antibody)
heavy 1: not shown
light 1: not shown
heavy 2: QSVEESGGRLVTPGTPLTLTCTVSGFSLSSYSMSWVRQAPGKGLEWIGVIYVNSKTWYANWAKGRFTISKTSTTVDLKITSPTTEDTATYFCARGDAGYTTNSWLWGPGTLVTVSSASTKGPSVFPLAPSSKSTSGGTAALGCLVKDYFPEPVTVSWNSGALTSGVHTFPAVLQSSGLYSLSSVVTVPSSSLGTQTYICNVNHKPSNTKVDKRVEPKSCDKTHTCPPCPAPEFEGGPSVFLFPPKPKDTLMISRTPEVTCVVVAVSHEDPEVKFNWYVDGVEVHNAKTKPREEQYNSTYRVVSVLTVLHQDWLNGKEYKCKVSNKALPAPIEKTISKAKGQPREPQVYTLPPSREEMTKNQVSLTCLVKGFYPSDIAVEWESNGQPENNYKTTPPVLDSDGSFFLYSRLTVDKSRWQQGNVFSCSVMHEALHNHYTQKSLSLSPGK
light 2: AFELTQTPASVSEPVGGTVTIKCQASESIDNYCSWYQQKPGQPPKLLIYQAFKLASGVPSRFRGSGSGTQFTLTISDLESDDAATYYCQSYSGISTTAFGGGTEVVVKRTVAAPSVFIFPPSDEQLKSGTASVVCLLNNFYPREAKVQWKVDNALQSGNSQESVTEQDSKDSTYSLSSTLTLSKADYEKHKVYACEVTHQGLSSPVTKSFNRGEC
[4]
  IC50 of T cell mediated cytotoxicity, 786-O cells, human T cells, E:T 8:1: 0.088 mg/L
  IC50 of T cell mediated cytotoxicity, Hela cells, human T cells, E:T 8:1: 0.424 mg/L
  IC50 of T cell mediated cytotoxicity, LCLC-103H cells, human T cells, E:T 8:1: 0.511 mg/L
  IC50 of T cell mediated cytotoxicity, NCI-H23 cells, human T cells, E:T 8:1: 0.58 mg/L
  IC50 of T cell mediated cytotoxicity, NCI-H1650 cells, human T cells, E:T 8:1: 0.693 mg/L
  IC50 of T cell mediated cytotoxicity, ZR-75-1 cells, human T cells, E:T 8:1: 0.424 mg/L
[1]
  binding result: binds

B4: IgG1-ROR2-A-HC4LC3-FEAR (antibody)
heavy: EVQLLESGGGLVQPGGSLRLSCTVSGFSLSSYSMSWVRQAPGKGLEWIGVIYVNSKTWYANWAKGRFTISKDNSKNTVYLQMNSLRAEDTATYYCARGDAGYTTNSWLWGQGTLVTVSSASTKGPSVFPLAPSSKSTSGGTAALGCLVKDYFPEPVTVSWNSGALTSGVHTFPAVLQSSGLYSLSSVVTVPSSSLGTQTYICNVNHKPSNTKVDKRVEPKSCDKTHTCPPCPAPEFEGGPSVFLFPPKPKDTLMISRTPEVTCVVVAVSHEDPEVKFNWYVDGVEVHNAKTKPREEQYNSTYRVVSVLTVLHQDWLNGKEYKCKVSNKALPAPIEKTISKAKGQPREPQVYTLPPSREEMTKNQVSLTCLVKGFYPSDIAVEWESNGQPENNYKTTPPVLDSDGSFFLYSRLTVDKSRWQQGNVFSCSVMHEALHNHYTQKSLSLSPGK
light: AFELTQSPSSLSASVGDRVTITCQASESIDNYLSWYQQKPGKAPKLLIYQAFKLASGVPSRFRGSGSGTDFTLTISSLQPEDFATYYCQSYSGISTTAFGGGTKVEIKRTVAAPSVFIFPPSDEQLKSGTASVVCLLNNFYPREAKVQWKVDNALQSGNSQESVTEQDSKDSTYSLSSTLTLSKADYEKHKVYACEVTHQGLSSPVTKSFNRGEC
notes: Humanized variant, full-length IgG1 with L234F, L235E, D265A, K409R; also called IgG1-ROR2-HC4LC3
[2]
  binding result: binds
[3]
  Kd: 1.1 nM
  koff: 0.00068 s⁻¹
  kon: 600000 M⁻¹ s⁻¹

B5: bsIgG1-huCD3-H101G-FEAL×ROR2-A-HC4LC3-FEAR (bispecific antibody)
heavy 1: not shown
light 1: not shown
heavy 2: EVQLLESGGGLVQPGGSLRLSCTVSGFSLSSYSMSWVRQAPGKGLEWIGVIYVNSKTWYANWAKGRFTISKDNSKNTVYLQMNSLRAEDTATYYCARGDAGYTTNSWLWGQGTLVTVSSASTKGPSVFPLAPSSKSTSGGTAALGCLVKDYFPEPVTVSWNSGALTSGVHTFPAVLQSSGLYSLSSVVTVPSSSLGTQTYICNVNHKPSNTKVDKRVEPKSCDKTHTCPPCPAPEFEGGPSVFLFPPKPKDTLMISRTPEVTCVVVAVSHEDPEVKFNWYVDGVEVHNAKTKPREEQYNSTYRVVSVLTVLHQDWLNGKEYKCKVSNKALPAPIEKTISKAKGQPREPQVYTLPPSREEMTKNQVSLTCLVKGFYPSDIAVEWESNGQPENNYKTTPPVLDSDGSFFLYSRLTVDKSRWQQGNVFSCSVMHEALHNHYTQKSLSLSPGK
light 2: AFELTQSPSSLSASVGDRVTITCQASESIDNYLSWYQQKPGKAPKLLIYQAFKLASGVPSRFRGSGSGTDFTLTISSLQPEDFATYYCQSYSGISTTAFGGGTKVEIKRTVAAPSVFIFPPSDEQLKSGTASVVCLLNNFYPREAKVQWKVDNALQSGNSQESVTEQDSKDSTYSLSSTLTLSKADYEKHKVYACEVTHQGLSSPVTKSFNRGEC
[1]
  binding result: binds
[5]
  binding result: binds

B6: IgG1-ROR2-A-HC2LC4-FEAR (antibody)
heavy: QSVLESGGGLVQPGGSLRLSCTVSGFSLSSYSMSWVRQAPGKGLEWIGVIYVNSKTWYANWAKGRFTISKTSTTVYLQMNSLRAEDTATYFCARGDAGYTTNSWLWGQGTLVTVSSASTKGPSVFPLAPSSKSTSGGTAALGCLVKDYFPEPVTVSWNSGALTSGVHTFPAVLQSSGLYSLSSVVTVPSSSLGTQTYICNVNHKPSNTKVDKRVEPKSCDKTHTCPPCPAPEFEGGPSVFLFPPKPKDTLMISRTPEVTCVVVAVSHEDPEVKFNWYVDGVEVHNAKTKPREEQYNSTYRVVSVLTVLHQDWLNGKEYKCKVSNKALPAPIEKTISKAKGQPREPQVYTLPPSREEMTKNQVSLTCLVKGFYPSDIAVEWESNGQPENNYKTTPPVLDSDGSFFLYSRLTVDKSRWQQGNVFSCSVMHEALHNHYTQKSLSLSPGK
VL: DIQLTQSPSSLSASVGDRVTITCQASESIDNYLSWYQQKPGKAPKLLIYQAFKLASGVPSRFRGSGSGTDFTLTISSLQPEDFATYYCQSYSGISTTAFGGGTKVEIK
notes: Humanized variant
[3]
  Kd: 2.2 nM
  koff: 0.0011 s⁻¹
  kon: 510000 M⁻¹ s⁻¹
